Test [1] concerns the target full-length SlyD from Thermus thermophilus (TtSlyDFL) (Thermus thermophilus).
In test [2] the target is chimeric TtSlyD construct in which the IF domain is replaced by the flap loop from human FKBP12 (TtSlyDΔIF) (Thermus thermophilus | human) (UniProt P62942).
Test [3] has the same target. The source holds these as a separate data set.
For test [4], the target named is TtSlyDFL Y63F (Thermus thermophilus).
Test [5] deals with full-length SlyD from Thermus thermophilus (TtSlyDFL) (Thermus thermophilus). The source holds these as a separate data set.
Test [6] deals with chimeric TtSlyD construct in which the IF domain is replaced by the flap loop from human FKBP12 (TtSlyDΔIF) (Thermus thermophilus | human) (UniProt P62942). This is another data set of the same source.
In test [7] the target is full-length SlyD from Thermus thermophilus (TtSlyDFL) (Thermus thermophilus). The source holds these as a separate data set.
Test [8] deals with chimeric TtSlyD construct in which the IF domain is replaced by the flap loop from human FKBP12 (TtSlyDΔIF) (Thermus thermophilus | human) (UniProt P62942). The source holds these as a separate data set.
In test [9] the target is full-length SlyD from Thermus thermophilus (TtSlyDFL) (Thermus thermophilus). The source holds these as a separate data set.
For test [10], the target named is chimeric TtSlyD construct in which the IF domain is replaced by the flap loop from human FKBP12 (TtSlyDΔIF) (Thermus thermophilus | human) (UniProt P62942). The source holds these as a separate data set.

Read-outs that look alike come from different tables or passages of the source.

As usually defined, the Kd is the free concentration of one partner at which half of the binding sites on the other are occupied at equilibrium, for simple one-to-one binding. A higher Kd goes with lower affinity. A word on the stoichiometry N: it is the number of molecules, sites or subunits per partner or assembly. With S2 peptide, in test [1], the KD1 (site 1, IF domain) worked out at 0.15 µM; the KD2 (site 2, FKBP domain) is 3.16 µM; the N1 (site 1, IF domain) amounted to 0.98; the N2 (site 2, FKBP domain) amounted to 1.05. Moreover, in [1], the dH1 (site 1, IF domain) is -14.8 kcal/mol and the dH2 (site 2, FKBP domain) was -8.9 kcal/mol. In addition, in [2], the Kd is 12.2 µM, the dH is -5.9 kcal/mol and the stoichiometry N amounted to 0.88. Also, in test [3], the equilibrium dissociation constant (Kd) was determined as 14.4 µM, the dH is -10 kcal/mol and the stoichiometry N is 0.91. Further, in test [4], the KD1 (site 1, IF domain) worked out at 0.03 µM; the KD2 (site 2, FKBP domain) turned out to be 1.58 µM; the N1 (site 1, IF domain) was 0.81; the N2 (site 2, FKBP domain) came out at 0.78. Further, in [4], the dH1 (site 1, IF domain) is -11.3 kcal/mol and the dH2 (site 2, FKBP domain) was -6 kcal/mol.

As to “S2-P29E peptide (from UniProt P0A7V0 20-34)”, in test [3], the dissociation constant Kd was 13.8 µM, the dH was -10.8 kcal/mol and the stoichiometry N is 0.69. Further, in test [5], the KD1 (site 1, IF domain) stood at 0.513 µM; the KD2 (site 2, FKBP domain) is 5.68 µM; the N1 (site 1, IF domain) is 0.88; the N2 (site 2, FKBP domain) was 1.02. Also, in test [5], the dH1 (site 1, IF domain) is -15.8 kcal/mol and the dH2 (site 2, FKBP domain) was -2.7 kcal/mol.

Regarding “S2-P25N/P29N peptide (from UniProt P0A7V0 20-34)”, in test [1], the KD1 (site 1, IF domain) stood at 0.234 µM; the KD2 (site 2, FKBP domain) came out at 8.33 µM; the N1 (site 1, IF domain) amounted to 0.93; the N2 (site 2, FKBP domain) came to 1.18. Further, in test [1], the dH1 (site 1, IF domain) is -16.8 kcal/mol and the dH2 (site 2, FKBP domain) was -2.3 kcal/mol.

On to SlpA linker P5T peptide, for which, in test [5], the equilibrium dissociation constant (Kd) turned out to be 130 µM, the dH was -0.9 kcal/mol and the stoichiometry N worked out at 1.76.

Consider “S2-P25A peptide (from UniProt P0A7V0 20-34)”, for which the kcat/KM of peptidyl-prolyl cis/trans isomerization of the S2-P25A peptide, NMR lineshape analysis, 25 °C, 0.2 μM enzyme in [6] was found to be 2.48e+08 M⁻¹ s⁻¹. In addition, the kcat/KM of peptidyl-prolyl cis/trans isomerization of the S2-P25A peptide, NMR lineshape analysis, 25 °C, 0.2 μM enzyme, peptide 10–1000 μM in [7] stood at 3.68e+08 M⁻¹ s⁻¹. Also, the kcat/KM of peptidyl-prolyl cis/trans isomerization of the S2-P25A peptide, NMR lineshape analysis, 25 °C, 0.2 μM enzyme in [8] turned out to be 2.84e+08 M⁻¹ s⁻¹. In addition, the KM of peptidyl-prolyl cis/trans isomerization of the S2-P25A peptide (cis form), Michaelis-Menten fit of NMR lineshape data, 25 °C in test [9] was 2000 µM. Moreover, in [3], the Kd came to 12.1 µM, the dH is -11.7 kcal/mol and the stoichiometry N came out at 0.91. In test [5], this substance had a KD1 (site 1, IF domain) of 0.129 µM; a KD2 (site 2, FKBP domain) of 7.04 µM; an N1 (site 1, IF domain) of 0.92; an N2 (site 2, FKBP domain) of 1.02. In addition, in [5], the dH1 (site 1, IF domain) was -16.6 kcal/mol and the dH2 (site 2, FKBP domain) is -8.5 kcal/mol.

Consider “S2-W23A peptide (from UniProt P0A7V0 20-34)”, for which, in test [3], the Kd was 17.1 µM, the dH was -8.1 kcal/mol and the stoichiometry N stood at 0.77. Besides, in [5], the KD1 (site 1, IF domain) was found to be 0.855 µM; the KD2 (site 2, FKBP domain) amounted to 18.8 µM; the N1 (site 1, IF domain) amounted to 0.76; the N2 (site 2, FKBP domain) is 0.91. For the same substance, in test [5], the dH1 (site 1, IF domain) was -15.8 kcal/mol and the dH2 (site 2, FKBP domain) was -2.3 kcal/mol.

In the case of “S2-P25A/P29E peptide (from UniProt P0A7V0 20-34)”, in [10], the Kd was 29 µM, the dH is -6.3 kcal/mol and the stoichiometry N turned out to be 0.84. In test [1], this substance came in with a KD1 (site 1, IF domain) of 1.45 µM; a KD2 (site 2, FKBP domain) of 44 µM; an N1 (site 1, IF domain) of 1.13; an N2 (site 2, FKBP domain) of 1.09. In test [1], the dH1 (site 1, IF domain) was -14.1 kcal/mol and the dH2 (site 2, FKBP domain) is -5.9 kcal/mol.

Source of the values: PMC5034536, “Molecular insights into substrate recognition and catalytic mechanism of the chaperone and FKBP peptidyl-prolyl isomerase SlyD” (BMC Biology, 2016).
